Paper PMC9398005

How the values were obtained:
[1] = target: Drosophila Su(H) (98-523) WT (Drosophila) (UniProt P28159); assay: ITC; cofactor (RAM peptide, Hairless or SHARP) in the syringe, Su(H) or Rbpj in the cell; 50 mM sodium phosphate, 150 mM sodium chloride; 20 injections, triplicate, one site model; 25°C by the legend, 20°C by the methods
[2] = target: Drosophila Su(H) E137V (98-523) (Drosophila) (UniProt P28159); assay: ITC; RAM peptide, Hairless or SHARP in the syringe, Su(H) or Rbpj in the cell; 50 mM sodium phosphate, 150 mM sodium chloride; 20 injections of 14 uL; triplicate; one site binding model; 20°C by the methods, 25°C by the legend of Fig 6
[3] = target: Drosophila Su(H) K132M (98-523) (Drosophila) (UniProt P28159); assay: as above
[4] = target: Drosophila Su(H) WT (98-523) (Drosophila) (UniProt P28159); assay: as above

VLSTQRKRAHGVTWFPEGFRAPAAVMSR [Drosophila Notch RAM peptide (residues 1763-1790)] showed a Kd [1] of 187 nM, a Ka [2] of 6.5e+06 M⁻¹ and a Ka [3] of 1.2e+07 M⁻¹. It also gave a Ka [4] of 5.4e+06 M⁻¹ and a Kd [4] of 187 nM.
